Assays:
Assay in all cases: flow cytometry on CHO-K1 transfectants, right sub-column
[1] = biological target: T1, H60A
T1 construct: also called hCD27 H60A
T1 receptor chain: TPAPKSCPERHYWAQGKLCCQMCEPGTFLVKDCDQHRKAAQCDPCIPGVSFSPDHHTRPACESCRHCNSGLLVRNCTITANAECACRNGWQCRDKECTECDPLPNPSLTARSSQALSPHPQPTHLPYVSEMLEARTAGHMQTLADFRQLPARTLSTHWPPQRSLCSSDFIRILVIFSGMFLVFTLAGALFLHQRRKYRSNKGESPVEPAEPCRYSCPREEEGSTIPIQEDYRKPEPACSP
Description: (§1) The hCD27 variants that were tested are listed. Amino acids correspond to the UniProt P26842-1 sequence. Amino acids 1-20 constitute the signal peptide. Binding is expressed as the geometric mean of the FITC signal, relative to antibody binding to hCD27, which was set at 100%.
(§2) The ability of several anti-hCD27 antibodies to bind to a series of hCD27 alanine mutants was determined using CHO-K1 cells, transiently transfected pCI-neo empty vector, pCI-neo.hCD27 and several pCI-neo.CD27Ala mutant constructs.
(§3) Detached cells were transferred to 96 wells round-bottomed well plates at approximately 1.2×10⁵ cells/well. After spinning down the cells, discarding the supernatants and re-suspending the cells in the residual volume, the primary antibodies were added and incubated for 30 minutes at 4° C. Cells were washed three times with DPBS/BSA 1%, followed by centrifugation, discarding of the supernatants and re-suspension in the residual volume. […] After washing once, antibody binding was detected using the HTS plate reader (FACS Canto II) and FlowJo software for data analysis. Debris, dead cells and doublets were excluded from the analysis. Binding was expressed as the geometric mean of the FITC signal, relative to antibody binding to hCD27, which was set at 100%.

[2] = biological target: T2, R93A
T2 construct: also called hCD27 R93A
T2 receptor chain: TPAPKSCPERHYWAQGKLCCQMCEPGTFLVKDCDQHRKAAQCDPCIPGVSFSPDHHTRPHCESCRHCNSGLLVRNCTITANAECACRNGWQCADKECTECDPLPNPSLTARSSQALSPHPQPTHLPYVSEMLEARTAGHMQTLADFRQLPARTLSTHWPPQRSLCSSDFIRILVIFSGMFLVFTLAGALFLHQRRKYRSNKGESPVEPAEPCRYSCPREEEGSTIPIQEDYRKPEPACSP
Description: as §1, §2, §3

[3] = biological target: T3, Q91A
T3 construct: also called hCD27 Q91A
T3 receptor chain: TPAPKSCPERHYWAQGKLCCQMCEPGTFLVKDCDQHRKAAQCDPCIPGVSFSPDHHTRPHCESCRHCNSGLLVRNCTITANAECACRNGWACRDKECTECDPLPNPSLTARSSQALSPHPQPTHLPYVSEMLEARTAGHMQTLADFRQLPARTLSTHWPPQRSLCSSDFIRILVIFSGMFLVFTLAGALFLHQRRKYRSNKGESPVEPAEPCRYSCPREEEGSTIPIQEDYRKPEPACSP
Description: as §1, §2, §3

[4] = biological target: T4, I46A
T4 construct: also called hCD27 I46A
T4 receptor chain: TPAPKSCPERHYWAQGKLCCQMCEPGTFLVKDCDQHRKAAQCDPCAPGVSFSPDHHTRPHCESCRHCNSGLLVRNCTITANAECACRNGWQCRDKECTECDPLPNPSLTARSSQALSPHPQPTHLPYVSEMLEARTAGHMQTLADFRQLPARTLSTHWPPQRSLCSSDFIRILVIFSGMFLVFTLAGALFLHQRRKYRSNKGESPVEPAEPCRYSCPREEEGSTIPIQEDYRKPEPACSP
Description: as §1, §2, §3

[5] = biological target: T5, W13A
T5 construct: also called hCD27 W13A
T5 receptor chain: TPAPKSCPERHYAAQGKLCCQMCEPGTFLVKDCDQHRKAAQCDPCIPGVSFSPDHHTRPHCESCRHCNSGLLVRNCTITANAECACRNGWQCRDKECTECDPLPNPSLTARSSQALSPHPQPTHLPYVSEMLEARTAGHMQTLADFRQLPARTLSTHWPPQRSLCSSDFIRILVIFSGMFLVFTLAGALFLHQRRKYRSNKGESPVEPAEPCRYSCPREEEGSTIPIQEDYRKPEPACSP
Description: as §1, §2, §3

[6] = biological target: T6, D43A
T6 construct: also called hCD27 D43A
T6 receptor chain: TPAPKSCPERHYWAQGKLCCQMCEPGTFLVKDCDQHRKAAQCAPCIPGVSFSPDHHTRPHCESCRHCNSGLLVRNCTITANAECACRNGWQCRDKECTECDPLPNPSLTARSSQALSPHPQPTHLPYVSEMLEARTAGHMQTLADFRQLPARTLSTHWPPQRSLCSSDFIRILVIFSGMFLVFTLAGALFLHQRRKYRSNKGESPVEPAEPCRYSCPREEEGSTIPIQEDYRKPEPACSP
Description: as §1, §2, §3

[7] = biological target: T7, R10A
T7 construct: also called hCD27 R10A
T7 receptor chain: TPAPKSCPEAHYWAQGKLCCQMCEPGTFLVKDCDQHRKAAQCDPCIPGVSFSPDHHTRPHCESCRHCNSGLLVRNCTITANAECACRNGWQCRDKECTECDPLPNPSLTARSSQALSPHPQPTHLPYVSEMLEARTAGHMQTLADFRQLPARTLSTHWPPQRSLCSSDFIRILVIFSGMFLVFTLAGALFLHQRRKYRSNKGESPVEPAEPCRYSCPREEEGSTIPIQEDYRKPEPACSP
Description: as §1, §2, §3

[8] = biological target: T8, W90A
T8 construct: also called hCD27 W90A
T8 receptor chain: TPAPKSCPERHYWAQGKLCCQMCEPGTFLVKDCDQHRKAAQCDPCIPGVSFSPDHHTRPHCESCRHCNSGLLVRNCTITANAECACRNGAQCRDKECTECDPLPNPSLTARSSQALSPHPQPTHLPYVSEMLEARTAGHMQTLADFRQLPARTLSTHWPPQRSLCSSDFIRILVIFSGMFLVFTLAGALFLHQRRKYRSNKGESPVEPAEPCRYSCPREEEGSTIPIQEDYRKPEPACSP
Description: as §1, §2, §3

[9] = biological target: T9, D32A
T9 construct: also called hCD27 D32A
T9 receptor chain: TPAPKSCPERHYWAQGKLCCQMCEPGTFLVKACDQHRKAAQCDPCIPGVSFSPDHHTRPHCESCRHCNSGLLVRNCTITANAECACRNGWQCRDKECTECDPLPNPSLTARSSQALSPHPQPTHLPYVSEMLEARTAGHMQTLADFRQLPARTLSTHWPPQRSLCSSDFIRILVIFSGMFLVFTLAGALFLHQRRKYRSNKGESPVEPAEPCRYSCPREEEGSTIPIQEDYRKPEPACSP
Description: as §1, §2, §3

[10] = biological target: T10, V49A
T10 construct: also called hCD27 V49A
T10 receptor chain: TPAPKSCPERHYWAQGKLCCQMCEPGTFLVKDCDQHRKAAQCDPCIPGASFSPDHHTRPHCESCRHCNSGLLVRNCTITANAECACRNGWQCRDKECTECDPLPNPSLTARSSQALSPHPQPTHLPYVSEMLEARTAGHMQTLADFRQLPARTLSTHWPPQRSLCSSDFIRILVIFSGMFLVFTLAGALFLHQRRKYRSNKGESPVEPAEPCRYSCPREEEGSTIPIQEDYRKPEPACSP
Description: as §1, §2, §3

binding, WT hCD27 = 100 (GM FITC) [1]: 129% | binding, WT hCD27 = 100 (GM FITC) [2]: 90% | binding, WT hCD27 = 100 (GM FITC) [3]: 136% | binding, WT hCD27 = 100 (GM FITC) [4]: 75% | binding, WT hCD27 = 100 (GM FITC) [5]: 88.6% | binding, WT hCD27 = 100 (GM FITC) [6]: 96.2% | binding, WT hCD27 = 100 (GM FITC) [7]: 108% | binding, WT hCD27 = 100 (GM FITC) [8]: 102% | binding, WT hCD27 = 100 (GM FITC) [9]: 62.1% | binding, WT hCD27 = 100 (GM FITC) [10]: 99.8%
B1: hCD27.131A (mouse parental 131A) (antibody, mouse IgG1, V domains shown)
VH: QIQLVQSGPELKKPGETVKISCKASGYTFTNYGMNWVKQAPGKGLKWMGWINTNTGEPTYAEEFKGRFAFSLETSATTAYLQINNLKNEDTATYFCAREGDAMDYWGQGTSVTVSS
VL: QIVLTQSPAIMSASPGEKVTMTCSASSSVSYMHWYQQKSGTSPKRWIYDTSKLASGVPARFSGSGSGTSYSLTISSMEAEDAATYYCQQWNSYPFTFGSGTKLEIK
notes: Mouse IgG1 antibody; also called mouse hCD27.131A

— patent US20180086841A1 (Merck Sharp & Dohme, published 2018)
